Results as given in US20140072613A1, “Compositions and Methods for Treating Cutaneous Scarring” (priority 2012, published 2014).

Columns and labels:
Test in all cases: cell-based or functional assay
[1] = biological target: T1, NEK2(h) (human) (UniProt P51955)
T1 sequence (looked up): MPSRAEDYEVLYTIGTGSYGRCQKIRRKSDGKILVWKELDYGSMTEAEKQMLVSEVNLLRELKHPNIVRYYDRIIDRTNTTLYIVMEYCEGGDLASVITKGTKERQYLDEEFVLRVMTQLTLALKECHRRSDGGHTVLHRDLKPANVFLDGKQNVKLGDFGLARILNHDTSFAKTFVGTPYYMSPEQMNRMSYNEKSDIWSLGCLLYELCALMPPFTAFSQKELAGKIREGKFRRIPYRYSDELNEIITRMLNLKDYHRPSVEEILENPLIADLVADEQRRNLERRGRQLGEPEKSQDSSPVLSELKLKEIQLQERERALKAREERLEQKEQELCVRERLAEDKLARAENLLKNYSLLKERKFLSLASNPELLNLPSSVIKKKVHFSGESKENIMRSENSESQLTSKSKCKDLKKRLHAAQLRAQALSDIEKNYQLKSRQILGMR

[2] = biological target: AMPKα1(h) (human) (UniProt Q13131)
Chain of AMPKα1(h) (human) (Q13131 whole entry): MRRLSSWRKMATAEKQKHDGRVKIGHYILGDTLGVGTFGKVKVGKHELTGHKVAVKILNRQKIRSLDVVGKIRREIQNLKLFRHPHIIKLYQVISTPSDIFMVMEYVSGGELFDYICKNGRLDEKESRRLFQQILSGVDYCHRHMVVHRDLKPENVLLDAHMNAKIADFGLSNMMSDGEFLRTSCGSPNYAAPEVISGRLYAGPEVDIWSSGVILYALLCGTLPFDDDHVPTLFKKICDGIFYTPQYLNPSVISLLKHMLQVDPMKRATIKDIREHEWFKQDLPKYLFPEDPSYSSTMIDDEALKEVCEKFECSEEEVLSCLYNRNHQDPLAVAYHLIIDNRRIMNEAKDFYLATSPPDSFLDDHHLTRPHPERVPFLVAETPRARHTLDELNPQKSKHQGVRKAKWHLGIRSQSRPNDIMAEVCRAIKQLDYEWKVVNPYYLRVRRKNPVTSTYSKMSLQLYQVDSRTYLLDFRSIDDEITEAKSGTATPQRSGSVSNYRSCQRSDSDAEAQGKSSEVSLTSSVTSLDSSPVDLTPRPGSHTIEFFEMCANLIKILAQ

[3] = biological target: Snk(h) (human) (UniProt Q9NYY3)
Chain of Snk(h) (human) (Q9NYY3 whole entry): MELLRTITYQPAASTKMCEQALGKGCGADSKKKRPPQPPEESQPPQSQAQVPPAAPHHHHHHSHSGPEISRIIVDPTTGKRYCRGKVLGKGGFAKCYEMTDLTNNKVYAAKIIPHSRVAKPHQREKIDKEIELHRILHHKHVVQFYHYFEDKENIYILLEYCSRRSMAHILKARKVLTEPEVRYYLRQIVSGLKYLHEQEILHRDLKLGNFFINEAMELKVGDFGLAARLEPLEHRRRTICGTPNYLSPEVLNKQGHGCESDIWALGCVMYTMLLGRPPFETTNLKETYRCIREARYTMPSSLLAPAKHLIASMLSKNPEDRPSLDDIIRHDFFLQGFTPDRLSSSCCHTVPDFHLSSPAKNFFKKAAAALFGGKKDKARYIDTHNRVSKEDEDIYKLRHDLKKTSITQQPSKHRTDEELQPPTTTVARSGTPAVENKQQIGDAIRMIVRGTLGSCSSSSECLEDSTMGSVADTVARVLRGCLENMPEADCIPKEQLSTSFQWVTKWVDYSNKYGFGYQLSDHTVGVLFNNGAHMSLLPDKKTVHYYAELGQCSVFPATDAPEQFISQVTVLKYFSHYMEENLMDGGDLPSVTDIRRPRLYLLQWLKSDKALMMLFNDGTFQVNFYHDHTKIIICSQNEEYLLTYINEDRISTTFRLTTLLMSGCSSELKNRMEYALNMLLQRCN

[4] = biological target: T2, MST1(h) (human) (UniProt Q13043)
T2 sequence (looked up): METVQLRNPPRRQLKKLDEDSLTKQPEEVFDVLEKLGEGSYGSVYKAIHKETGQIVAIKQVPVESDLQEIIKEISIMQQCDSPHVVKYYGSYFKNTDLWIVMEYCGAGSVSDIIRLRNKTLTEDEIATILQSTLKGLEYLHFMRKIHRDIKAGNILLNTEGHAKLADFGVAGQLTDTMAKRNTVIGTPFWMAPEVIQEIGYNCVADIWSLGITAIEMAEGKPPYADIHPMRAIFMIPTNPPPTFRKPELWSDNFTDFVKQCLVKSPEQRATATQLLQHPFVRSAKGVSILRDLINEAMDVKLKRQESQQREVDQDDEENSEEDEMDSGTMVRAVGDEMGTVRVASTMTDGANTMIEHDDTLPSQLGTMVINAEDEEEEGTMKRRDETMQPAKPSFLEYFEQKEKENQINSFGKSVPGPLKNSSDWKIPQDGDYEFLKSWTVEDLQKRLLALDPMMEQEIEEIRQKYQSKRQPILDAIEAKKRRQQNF

[5] = biological target: SRPK2(h) (human) (UniProt P78362)
Chain of SRPK2(h) (human) (P78362 whole entry): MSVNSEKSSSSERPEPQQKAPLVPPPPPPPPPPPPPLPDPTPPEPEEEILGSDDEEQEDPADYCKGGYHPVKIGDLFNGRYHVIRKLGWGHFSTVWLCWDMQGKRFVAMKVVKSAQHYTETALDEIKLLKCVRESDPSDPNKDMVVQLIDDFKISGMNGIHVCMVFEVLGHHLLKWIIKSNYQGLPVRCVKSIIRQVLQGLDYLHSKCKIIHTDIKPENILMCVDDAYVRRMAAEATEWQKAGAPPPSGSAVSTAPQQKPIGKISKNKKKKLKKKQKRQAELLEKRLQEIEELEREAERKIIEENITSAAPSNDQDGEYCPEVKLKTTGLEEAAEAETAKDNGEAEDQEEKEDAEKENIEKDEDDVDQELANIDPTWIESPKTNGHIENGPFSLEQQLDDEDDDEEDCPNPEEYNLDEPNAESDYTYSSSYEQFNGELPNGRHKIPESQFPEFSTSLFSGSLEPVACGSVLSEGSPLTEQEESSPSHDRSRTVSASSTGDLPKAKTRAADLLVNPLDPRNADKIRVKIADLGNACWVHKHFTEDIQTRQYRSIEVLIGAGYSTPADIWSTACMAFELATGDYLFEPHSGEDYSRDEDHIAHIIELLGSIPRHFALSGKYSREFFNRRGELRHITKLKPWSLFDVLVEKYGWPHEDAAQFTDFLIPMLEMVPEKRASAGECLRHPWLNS

[6] = biological target: T3, NEK11(h) (human) (UniProt Q8NG66)
T3 sequence (looked up): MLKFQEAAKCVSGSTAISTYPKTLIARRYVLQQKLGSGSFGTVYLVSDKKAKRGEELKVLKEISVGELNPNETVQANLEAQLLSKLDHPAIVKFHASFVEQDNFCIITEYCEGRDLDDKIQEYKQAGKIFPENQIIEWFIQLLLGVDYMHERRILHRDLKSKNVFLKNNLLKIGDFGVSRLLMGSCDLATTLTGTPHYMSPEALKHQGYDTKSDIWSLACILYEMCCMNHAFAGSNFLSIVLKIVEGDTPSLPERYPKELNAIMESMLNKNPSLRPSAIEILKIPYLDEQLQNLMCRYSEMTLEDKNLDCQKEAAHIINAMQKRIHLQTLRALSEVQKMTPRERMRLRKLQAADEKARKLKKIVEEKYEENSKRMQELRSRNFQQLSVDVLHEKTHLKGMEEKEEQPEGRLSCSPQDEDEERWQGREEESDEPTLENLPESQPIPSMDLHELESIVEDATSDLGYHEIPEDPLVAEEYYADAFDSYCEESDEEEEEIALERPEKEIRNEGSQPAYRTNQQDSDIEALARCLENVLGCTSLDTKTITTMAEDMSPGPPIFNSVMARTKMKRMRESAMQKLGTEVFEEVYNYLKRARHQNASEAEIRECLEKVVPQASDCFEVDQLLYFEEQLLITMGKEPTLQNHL

[7] = biological target: T4, Bmx(h) (human) (UniProt P51813)
T4 sequence (looked up): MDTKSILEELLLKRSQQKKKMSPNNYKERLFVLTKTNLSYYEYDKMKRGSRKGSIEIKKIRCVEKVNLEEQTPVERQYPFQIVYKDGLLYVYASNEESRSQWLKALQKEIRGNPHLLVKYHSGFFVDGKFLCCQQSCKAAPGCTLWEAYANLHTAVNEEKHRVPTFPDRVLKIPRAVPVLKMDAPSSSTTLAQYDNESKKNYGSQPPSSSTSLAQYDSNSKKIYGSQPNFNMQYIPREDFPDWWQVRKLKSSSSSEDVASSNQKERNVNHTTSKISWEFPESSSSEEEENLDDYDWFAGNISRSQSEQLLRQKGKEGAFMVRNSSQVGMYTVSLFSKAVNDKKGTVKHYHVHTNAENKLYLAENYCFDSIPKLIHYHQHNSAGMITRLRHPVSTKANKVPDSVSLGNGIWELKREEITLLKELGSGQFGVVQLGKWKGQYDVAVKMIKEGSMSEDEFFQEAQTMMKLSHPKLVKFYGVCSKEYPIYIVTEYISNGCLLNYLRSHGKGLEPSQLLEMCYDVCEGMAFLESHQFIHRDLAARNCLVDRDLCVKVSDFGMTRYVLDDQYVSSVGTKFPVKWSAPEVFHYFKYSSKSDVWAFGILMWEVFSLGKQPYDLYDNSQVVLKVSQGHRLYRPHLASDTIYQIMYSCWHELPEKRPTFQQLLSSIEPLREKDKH

[8] = biological target: T5, Rse(h) (human) (UniProt Q06418)
T5 sequence (looked up): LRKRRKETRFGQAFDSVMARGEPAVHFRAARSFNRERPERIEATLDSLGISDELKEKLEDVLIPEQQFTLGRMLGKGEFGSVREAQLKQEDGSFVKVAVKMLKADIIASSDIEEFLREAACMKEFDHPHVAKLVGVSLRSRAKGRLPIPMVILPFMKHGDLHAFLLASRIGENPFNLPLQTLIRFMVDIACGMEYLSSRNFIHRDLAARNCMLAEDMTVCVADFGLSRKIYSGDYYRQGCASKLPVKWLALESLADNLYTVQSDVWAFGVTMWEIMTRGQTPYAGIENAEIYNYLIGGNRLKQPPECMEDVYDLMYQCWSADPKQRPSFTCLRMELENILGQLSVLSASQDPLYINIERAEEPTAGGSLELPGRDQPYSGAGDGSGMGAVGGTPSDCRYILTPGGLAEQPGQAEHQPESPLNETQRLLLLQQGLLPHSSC

[9] = biological target: BTK(h) (human) (UniProt Q06187)
Chain of BTK(h) (human) (Q06187 whole entry): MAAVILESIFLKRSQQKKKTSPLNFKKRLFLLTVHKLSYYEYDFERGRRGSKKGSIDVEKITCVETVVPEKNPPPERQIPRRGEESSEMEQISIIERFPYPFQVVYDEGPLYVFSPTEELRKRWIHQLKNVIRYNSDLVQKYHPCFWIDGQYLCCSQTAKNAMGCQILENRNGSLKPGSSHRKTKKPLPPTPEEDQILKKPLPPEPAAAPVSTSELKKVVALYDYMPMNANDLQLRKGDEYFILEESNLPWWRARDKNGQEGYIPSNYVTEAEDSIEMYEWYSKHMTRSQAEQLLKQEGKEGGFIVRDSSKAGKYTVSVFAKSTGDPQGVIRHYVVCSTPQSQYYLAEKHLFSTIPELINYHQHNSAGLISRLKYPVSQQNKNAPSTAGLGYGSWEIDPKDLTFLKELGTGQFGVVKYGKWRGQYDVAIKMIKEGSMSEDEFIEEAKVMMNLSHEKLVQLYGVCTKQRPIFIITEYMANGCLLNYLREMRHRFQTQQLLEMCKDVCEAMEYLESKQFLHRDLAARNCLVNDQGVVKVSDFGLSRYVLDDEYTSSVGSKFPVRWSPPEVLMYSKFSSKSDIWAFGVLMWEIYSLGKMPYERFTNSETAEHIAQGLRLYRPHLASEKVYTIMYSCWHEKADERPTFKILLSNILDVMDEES

[10] = biological target: RIPK2(h) (human) (UniProt O43353)
Chain of RIPK2(h) (human) (O43353 1-299 limits assumed): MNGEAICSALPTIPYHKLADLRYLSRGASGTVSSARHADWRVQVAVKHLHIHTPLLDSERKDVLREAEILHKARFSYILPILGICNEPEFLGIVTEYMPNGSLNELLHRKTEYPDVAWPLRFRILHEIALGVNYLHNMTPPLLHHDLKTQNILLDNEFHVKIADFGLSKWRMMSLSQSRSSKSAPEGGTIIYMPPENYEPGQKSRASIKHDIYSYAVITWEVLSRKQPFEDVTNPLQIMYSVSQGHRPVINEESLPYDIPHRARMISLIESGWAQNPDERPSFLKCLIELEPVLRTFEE

[11] = biological target: JNK2α2(h) (human) (UniProt P45984)

## MMI-0500 (peptide)
[1]
  % activity, 100 µM: 0%
[2]
  % activity, 100 µM: 35%
[3]
  % activity, 100 µM: 122%
[4]
  % activity, 100 µM: 3%
[5]
  % activity, 100 µM: 80%
[6]
  % activity, 100 µM: 2%
[7]
  % activity, 100 µM: 45%
[8]
  % activity, 100 µM: 63%
[9]
  % activity, 100 µM: 18%
[10]
  % activity, 100 µM: 30%
[11]
  % activity, 100 µM: 81%
